The values that follow come from patent US20060241020.

In series [1] the target is T1, AEGELpYGSLYA (Sap1 example phosphopeptide).
T1 chain: AEGELYGSLYA

For series [2], the target named is T2, EFpYGAFA (Sap1 example phosphopeptide, A form of EFpYGAFA/G).
T2 chain: EFYGAFA

Series [3] deals with T3, EFpYGAFG (Sap1 example phosphopeptide, G form of EFpYGAFA/G).
T3 chain: EFYGAFG

Series [4] addresses all the clones tested (PTP-Sap1 clones as GST-peptides in the dephosphorylation assay).
In series [5] the target is the GST-peptide (PTP-β clone as GST fusion in the dephosphorylation assay).

B1: PTP-Sap1 wild type (GST fusion of the catalytic domain) (protein)
chain: LKRRNKKKQQKPELRDLVFSSPGDIPAEDFADHVRKNERDSNCGFADEYQQLSLVGHSQSQMVASASENNAKNRYRNVLPYDWSRVPLKPIHEEPGSDYINASFMPGLWSPQEFIATQGPLPQTVGDFWRLVWEQQSHTLVMLTNCMEAGRVKCEHYWPLDSQPCTHGHLRVTLVGEEVMENWTVRELLLLQVEEQKTLSVRQFHYQAWPDHGVPSSPDTLLAFWRMLRQWLDQTMEGGPPIVHCSAGVGRTGTLIALDVLLRQLQSEGLLGPFSFVRKMRESRPLMVQTEAQYVFLHQCILRFLQQSAQAPAEKEVPYEDVENLIYENVAAIQAHKLEV
In the case of B1, the Km result in series [1] is “Km=7.6 uM”; in series [2], “Km=7.0 uM”; in series [3] it was “Km=7.0 uM”. In addition, the “dephosphorylation assay on GST-PEP constructs” value in series [4] is given as “Dephosphorylation assays showed a conserved enzymatic activity for all the clones tested (not shown)”.

B2: PTP-β wild type (GST fusion of the catalytic domain) (protein)
chain: RQKVSHGRERPSARLSIRRDRPLSVHLNLGQKGNRKTSCPIKINQFEGHFMKLQADSNYLLSKEYEELKDVGRNQSCDIALLPENRGKNRYNNILPYDATRVKLSNVDDDPCSDYINASYIPGNNFRREYIVTQGPLPGTKDDFWKMVWEQNVHNIVMVTQCVEKGRVKCDHYWPADQDSLYYGDLILQMLSESVLPEWTIREFKICGEEQLDAHRLIRHFHYTVWPDHGVPETTQSLIQFVRTVRDYINRSPGAGPTVVHCSAGVGRTGTFIALDRILQQLDSKDSVDIYGAVHDLRLHRVHMVQTECQYVYLHQCVRDVLRARKLRSEQENPLFPIYENVNPEYHRDPVYSRH
Turning to B2, in series [5], the “dephosphorylation assay on GST-PEP constructs” value is listed as “the dephosphorylation of the GST-peptide was weak (not shown) as compared to the same experiment on PTP-Sap1”.
